Assay: soluble fraction after stress (log2 fold change); higher = more stays soluble; pooled small domains, quantitative proteomics
Details: stress: pH 4
Outline: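 With high-throughput quantitative proteomics, pooled custom libraries of small protein domains were measured after pH 4 stress. Each domain's soluble amount after the stress gives a fold change taken as aggregation propensity. Higher log2 values mean more of the domain stayed soluble.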

Row | Sequence | soluble fraction (log2)
1 | HMNPLPALLRYFRQKAGLTQQDVAAALSISRSGYANYEEGRNIPNIEQAIKLSELLNHDFLYAYTLSS | -0.749
2 | HMRKDWTPGAFVEAFVNDTPATRSTILAKAVSAGLSRWAADNLLRTADNDGLMVRQGSGKRNEPFTYRRGP | 0.22
3 | HMNVSVSITKELQVYINDERISSSALESTLKSKLAGIENPTIILRAEEGVPIEKAVNVMDIANRNRYKIVL | -0.969
4 | HMTETIPVSERLFRYLFEEKGKRVQKIQQTSHARVRMERSPYSVVVSGTKDAVEAAMESLKATEKELLEA | 0.321
5 | HMSKEDDSLVVTFRRMLLEEVDLHELSRIDANQRRARLERVIAHLVSREGVILSASERNQLVRRVVDEAV | -0.801
6 | HMAESTRSRILNAAIEMMETGGESSVRLSAIAEALGIKEPSIYHHFTNRTELVNAAYIEWYW | -0.63
7 | HMNESPVLAVLTPTERKVASLVAEGLTNQAIAARMILAEGTVKNHVSTLLHKLQAPDRTALALTLYKAFQ | 0.165
8 | HMLAPLAEMRGDTLDRLEKAVLELFSSRDFHEVSLQDVARRANVSLQTIYKYFGSKEALVYTMLDTLLGR | -0.87
9 | HMQGDHELSQRILSYLSEQGGSSPLTDKASPEEIYRIFRVSKKKYKQALGNLYKSKSIIILADKIQLL | 0.195
10 | HMLDLSEEEQKIVSILEKQGNLQINSLVVEADIPVHKINAILFELEMKGVVRVLALSLIHISEP | -0.628
11 | HMKIDLKQIEGVLDELAKVKGSLITILQKTQETYGYLPKEAIIYISERTGIAESEIMGVATFYTQFRL | -0.779
12 | HMAATISPEIQAEAEKAAALGVESIKNFMASLKEKNPEQHALFSDSEKRRLYAIARKADLNTTQQG | 0.0597
13 | HMEREQPFAVTEAYRGMRLDRFLQAMLPRMSRAAIQDAIDNRVRLGSGRAAKASLRPAIGDTVFFGQRI | -0.17
14 | HMSPGAKIEVTGNTVNLRAGPGTNYDTRGQVKKGEQLPLLGEQGGWYRVQTSRGVAYLAGWLARVLT | -0.0378
15 | HMEKELVSDFASRISTARSSKGWNHAELGKRMAETVNVIKSAESGKPPTDSVVKKLERVLGITLMEV | -0.218
16 | HMEDYYKILGVQSNSNPDDIKKAYRKLSLKHHPDRGGDASEFKKINEAYQTLGTPEKRKMYDMQQNN | ≥ 0.43
17 | HMFTKYSPDFKLSVILDMRKNNLGYGEVVRKYWNLDSYKESDRHRSQVRLWERIFLEEGVEGFM | -1.77
18 | HMQISLDTKLINLEFSVRANNVFRENQIFTLRDLTSHSKEDLMLMTNFGKTTLYEVNKKLEEHQLKLSQ | -1.53
19 | HMAQVSDTGAIAKIVADAIAANPKQVQQYLDGNEKVLMYLVGQVMKLSKGKANPPMVIQLLKEQLG | -0.0882
20 | HMNRIKIYPTPGSKVLSIENINFSLIHDFKILDIFGREVKNFTVSSEKNTKMLVDTSKLSDGLYFIFFNTF | -0.61
21 | HMATLQLPVPKITLYPGELIRSDHLTDQRFNARALYHSAVYKSREDIVGKVARRTLLPGQPIPVNALR | 0.194
22 | HMSDRFVRIVMNDGTVKLGQMISEDADFIRLKTNNLGELNIPKYLVLDMMDLTRSEYVRLSISNAG | -0.426
23 | HMEKINLLVENNDNYRLDKIIALNMEELSRTQIQEMIGQGLVLVNGKVEKASYKTKLNDQIEITIED | -0.409
24 | HMIMDQTILRKQRELTDRLNRYRNEYYNHNKPSVSDEVYDRLFDELQSLEKETGVQMANSPTTTVG | 0.0972
25 | HMDQDIILHKVQPGDTLSKILLHYHSHQDRNKLQGLIAESMTANPFIKNPDLIYPGQLIQVPVPA | 0.124

Row | Sequence | soluble fraction (log2)
26 | HMKTRNISGNHEAVWQAVRSRTQAGHPTTRAVIMDDLKAQGLNTQKFSRWLKKLVDDGSVYMDGDTIIMGK | -0.12
27 | HMGQDGFIGLEAAKKLVLQKLGLTSAEFIKAELDAEDRKYELELIVDGIEYDFDIDAYSGAFLKQEQETV | 0.122
28 | HMDWVAYGAELRRRRLLAGWTVAELSRRINLSGMTIHQIEKGRGRLRPSELTLAKLAAALGMPTP | ≥ 0.43
29 | HMSSNLSLHKEGNKIVILGLEGKSVIEVYDLMGRLLSSQTNYNPKQEITLLQPVIIRVTDTQQTKSFKV | -0.132
30 | HMELNGVSETAKSVYSIILNNSSTVDDIVIKTKLPAAKVMQALTELELNDAVERKSGGVYALP | -0.0324
31 | HMQHYQFEVDEASSKKRLDVFLSENLPEISRSRLKKLIDEKRVTVNEMSRPAGYKVRVKEKIEFHIPPL | -0.317
32 | HMVEREYRLEVPPEAEGKRLDQFLVNQPVQLSRSQVQHLIQNGLVLVNAKTRRSSYRVHTGDIIEMQVPA | -0.088
33 | HMQLVPGIGRLSARELEVFTLIGRGLGTSEIGKKLGVSAYTVQTHRNHIKEKLNLPNAAAITYWAIQWAHG | -0.338
34 | HMTEQLTLVGKTGVTTTDLRPSGKVEVDGKRYDAVADNGAFISKGAHIKVVRYVTGQVYVVPTD | -0.146
35 | HMGMGIGQIIKEKRTALKMTQNELAERLGVSQQSVTGWENNAAVPRESAVRGMMDIFGLSRNELFGEP | 0.0969
36 | HMTTMTTGQRIAAKRKEQGLSQENLGEQLGVSRQAIYKWESDASLPDIDKLIALSRLFGVSTDYLLLE | -1.68
37 | HMSPFAHHLHELRMRHGIRQNELAELIGYDQTYISALEVGLKGPPTPEFVDKLVEGLALSRTEEAALRSAA | -0.562
38 | HMIDFDEQGNLWVHEMGPRHGDELNLIEKARNYGYPTVSQGDHYSGVKISNHEDIPIFKSPEKAWVPAISP | -0.373
39 | HMGTRPIQIASFSKEENAKRAVEALAKIGITAQPQKSGSATKAVWGVVANGDADLLAKIKAAGFADAYFL | 0.179
40 | HMKADIEQVQRAFDTLDPKNQQLVLDAMKAATAELDPNSDQFKTNTEFINDNQKALDRHAKAS | 0.0627
41 | HMRTYEHALTEEEKELILIVSNLSEYKSLPPSQIVPKLADLGIYIASESSFYRVLRAHNQLHHRGR | -1.27
42 | HMQKIYTIARGDTLSHIVAGTLKQQGIAYTTGELYRLVNVVAQYNDILNPNRIYTGHQLDLTPLYSED | -0.434
43 | HMYLSNPTYRGDSLVDALTQIGVDASFASRRDLARKNGIENYTGSAKQNLELLQLLREGRLR | -0.173
44 | HMATETMGMIIRRLRREHGLTQEELAASIGVTAQAVSKWEKDLGMPDISQIVPLAGAFNVRTDVLFGLE | -0.672
45 | HMFTFEDMDKFESLLTTGLTDVQRRIYSLVTHDGKEYDLIAETLGISVEAVRMHMSRARKKIRENYKKID | -1.7
46 | HMSDDSYLVALAEAYKNATSWDIRRQVLSIMTGVSSYKEISRYIPGLTQYRLSISNLHRLQYGRAAPVP | -0.217
47 | HMPAELGVVVRNANLRSGPGTKYAIVGSAPAGTTVRIAGTNKAGDWYHLSSGRWIAAFLVDRN | 0.34
48 | HMDAGIVVPDTYNKPLAEAVASLEGEGFRTEKKEGYSDTVAKGNVMSQNPEAGTNAERGSTVTIVISQGPQ | 0.22
49 | HMAGPRRRLLDAAIDRAAERGLGDLSLRALAEELGTSHRMLSHHFGSKDGLWLAIVEEVERRQ | -0.661
50 | HMSDTFENILQRLIKATGRKNASEMANALGLSPQSVYSAKTKGKIPPAWIFAAAERFNASADWIYFGY | -0.759

Row | Sequence | soluble fraction (log2)
51 | HMIEQIELEARVPDELGGQRLDQVAAQMFDDFSRSRLTGWIRDGSLTADGQQLRPRDIVYGGTLLQLKAEQ | -0.151
52 | HMDLPDFTSRERDILARVVQGDSNERIAASLGVSVSTVKTHIGNILRKTGQTNRVRLIVWATRHL | -0.37
53 | HMRQQSLHSLYRDHHSWLQNWLRRQLGNTWDAADLSQDTFIKVLASSQSVAEIREPRAYLLTVGKRL | -0.0586
54 | HMHLKDEHGLTPKQRAFADEYVITLNATVSYKKIYSVKRDSVASTNGSRLLGNANVKAYIDKRLEE | 0.172
55 | HMQQLIEFSVTKGHPWINKKIMDLNLPENQLILTIQREGHVVSAEGKTIILENDRITISTDDR | -1.43
56 | HMTNYNTEKIIPEEQAGKRLDVVLANIFPEFSRSRLKNWIIDGFILVDGKVLRPRDFVTGGELVSIDVIV | -0.356
57 | HMEKSLSAQVYEKIKAGIISLKYPPGSVLKERELSESLGVSRTPVREAIQRLSQESWLVPGEGKRMQVRP | ≥ 0.43
58 | HMSFDNIKVGYISETAGYVKGISLADANEYAKLNPDTEFIFIDGDEKVRFLTINEVNGLTPKNLLRSDP | -1.6
59 | HMNIEEQVVAEVLVKDFMKQLTPRDIHILELRKNGYTYQEIAGQLGYHTHSAVKKRVDRLAEQWLAYTQGH | -0.739
60 | HMGNAQELQKKLEGLKGISGIEKLESDHYAEKYLVRITQPVDHKNPAAGTFTQRVIVAHVGFDRPTILVT | 0.318
61 | HMEAEPRLLDLPPGTRAGRLDKVLAQLLPEHSRSRLQGWIERGGVLVNGKEASVRQVVGPGDQLTVWEEAA | 0.0341
62 | HMGDIQFMEYRINHSSGWIGKNISDFAAVSKNLVILIKRGQDVVIPRGPTAIMEDDVLVLHA | -1.15
63 | HMKARLRRVFQIYYGDAYSIMKALKETFPLQTIVHEPRTNSIVVDTPDEETATKIGDVVSAL | -0.563
64 | HMDGEFINLKNRAGTEIEARILNYQNGQVKLERKDGVTFVVSISMFDAKSVIAINHKIAEIIDT | 0.12
65 | HMFESQYIGKIATAITDISAFSGRLKIYDENWEARTLGEDAPEIKKGAKVKIVRHDDLTMFVEKK | 0.087
66 | HMGKNYYEILGITKSASEEQVRKAFRGLAMEWHPDRNRSADSEERFKEINEAYQVLIDPKKRQMYDQYGR | 0.349
67 | HMAASTPGTVTGSVVNVRPDPSTNNDRIGVIYQGTKVEILAQVGEWYNIQFGPVSGWVHKDYISTGA | -0.161
68 | HMLSDEEKMAALNEQARQRGFTISPGVLPYLITHYQRDMHSLSMILDALDRYSLQTKRTITLPLLHDLLQQ | -0.228
69 | HMGSYVVQLGAFAIRANAEKLAREVDGSIATSGRFSLVRVGPFTSRGQAEQALAKLRARGYSDALIHSL | -0.234
70 | HMNQYIFVLNEKGARITSFVDNTIPKEELIALAKQDYPNAADYIYSADGDSMLDEFMRGKLYVNGQFVAA | -0.475
71 | HMDEILHHPSYRAIYEYMLDHKHVKTKDIAALLNVKEPRARQLLKEMIDKHFIIALGSNRNREYELL | 0.348
72 | HMHDYYDSIDAVTHDKSYESNLVFALKLGYTETQLQKALLKLGKKAREDQILEELIRIQKSSKA | ≥ 0.43
73 | HMAEPIAAGKYTVSTSGSVLNMRVSPDADSQVLEKIPNGTIVEVTKSVLGWAYVTYNSAQGWVSSAYLV | -0.463
74 | HMLNSISIKTNKKIDFLEKNEHLVNFVYEKETMEHIYNLSYENKKDLQELQNKLSDIEGIIKINTDL | -2.18
75 | HMEYQTVEKSEAEQIIQELEKAERLALKVYSKNDIITGISVSDGKSYYFSAELVPMLKNIIENPEIKIL | -1.14
